This is an account of results in US6964763.

The assay has as its target Recombinant baculovirus-expressed HIV-1 gp120 derived from the LAV isolate (HIV-1 isolate LAV (LAI)), P03377. Put plainly: competition: 125I-CD4 on immobilized gp120, 10-fold molar excess of peptide; isolate (MN or LAI) not stated.

The term % inhibition denotes the relative decrease from the control value, in per cent. For CSVTCG (modifications not checked) [CSVTCG peptide derived from TSP1 properdin-like Type 1 repeat], the % inhibition is 53%.
